Results on 56 variants are retold here after article PMC11969024 (2025).

B1: peptide HD2 (from tick evasin EVA4) / CCL17 (biotinylated, synthetic) (parent complex)
chain 1: EEDDYTAYAPLTCYFT
chain 2: ARGTNVGRECCLEYFKGAIPLRKLKTWYQTSEDCSRDAIVFVTVQGRAICSDPNNKRVKNAVKYLQSLERS
B2: peptide HD2 (from tick evasin EVA4) / CCL19 (biotinylated, synthetic) (parent complex)
chain 1: EEDDYTAYAPLTCYFT
chain 2: GTNDAEDCCLSVTQKPIPGYIVRNFHYLLIKDGCRVPAVVFTTLRGRQLCAPPDQPWVERIIQRLQRTSAKMKRRSS

The variants in one assay derive from B1.
chain 1 EEDDYTAYAPLRCYFT: the enrichment was -1.85 log2 (difference from the parental peptide). Consider chain 1 EEDDYTAYAPLACYFT, for which the enrichment was -4.61 log2 (difference from the parental peptide).

With chain 1 EEDDYIAYAPLTCYFT, the enrichment is -6.22 log2 (difference from the parental peptide).

On to chain 1 EQDDYTAYAPLTCYFT, for which the enrichment is -0.416 log2 (difference from the parental peptide).

In the case of chain 1 EEDDYTAYHPLTCYFT, the enrichment is -5.14 log2 (difference from the parental peptide). Same read-out and setting: with chain 1 EEDDYTAYMPLTCYFT the figure was -5.43 log2 (difference from the parental peptide). On the same count and under the same terms, with chain 1 EEDDYTAYAPLTCYST the figure was -0.792 log2 (difference from the parental peptide); with chain 1 EEDDYTAYAPGTCYFT, -8.35 log2 (difference from the parental peptide); with chain 1 EEDLYTAYAPLTCYFT, -4.56 log2 (difference from the parental peptide). Consider chain 1 EEDDYTAYAPLTCIFT, for which the enrichment is -2.85 log2 (difference from the parental peptide).

As for chain 1 EEDDYTAYAPLTCHFT, the enrichment was -3.18 log2 (difference from the parental peptide). Still for that read-out and setting: with chain 1 EEDDYTAYAPLTCSFT the figure was -5.6 log2 (difference from the parental peptide); with chain 1 EEDDYTAYAPLTCGFT, -6.43 log2 (difference from the parental peptide). Still for that read-out and setting: with chain 1 EEDDYTAYAPLTCKFT the figure was -7.27 log2 (difference from the parental peptide); with chain 1 EEDDYTAYAPLTLYFT, -6.33 log2 (difference from the parental peptide). As to chain 1 EEIDYTAYAPLTCYFT, the enrichment was -4.4 log2 (difference from the parental peptide). As to chain 1 EEVDYTAYAPLTCYFT, the enrichment was -5.2 log2 (difference from the parental peptide).

A further assay covers variants of B2.
In the case of chain 1 EEDIYTAYAPLTCYFT, the enrichment is -2.59 log2 (difference from the parental peptide). Consider chain 1 EEDMYTAYAPLTCYFT, for which the enrichment was -3.6 log2 (difference from the parental peptide).

Take chain 1 EEDWYTAYAPLTCYFT: the enrichment is 0.498 log2 (difference from the parental peptide). Same read-out and setting: under chain 1 EEDLYTAYAPLTCYFT stands -2.61 log2 (difference from the parental peptide). With chain 1 EEDSYTAYAPLTCYFT, the enrichment is -6.25 log2 (difference from the parental peptide). The same measure, in the same setting: with chain 1 EEDDYTAFAPLTCYFT the figure was -1.35 log2 (difference from the parental peptide); with chain 1 EEDDYTAWAPLTCYFT, 0.479 log2 (difference from the parental peptide). The same measure, in the same setting: with chain 1 EEFDYTAYAPLTCYFT the figure was -3.58 log2 (difference from the parental peptide); with chain 1 EELDYTAYAPLTCYFT, -2.95 log2 (difference from the parental peptide); with chain 1 EEYDYTAYAPLTCYFT, -0.734 log2 (difference from the parental peptide). Same read-out and setting: with chain 1 EEWDYTAYAPLTCYFT the figure was 0.0843 log2 (difference from the parental peptide). chain 1 EEGDYTAYAPLTCYFT: the enrichment was -6.43 log2 (difference from the parental peptide). As for chain 1 EEDDYTGYAPLTCYFT, the enrichment is -5.86 log2 (difference from the parental peptide).

For chain 1 EEDDYTDYAPLTCYFT, the enrichment is 2 log2 (difference from the parental peptide). On the same count and under the same terms, under chain 1 EEDDYTHYAPLTCYFT stands -0.764 log2 (difference from the parental peptide). Still for that read-out and setting: with chain 1 EEDDYTMYAPLTCYFT the figure was 2.5 log2 (difference from the parental peptide). Same read-out and setting: under chain 1 EEDDYTEYAPLTCYFT stands -0.397 log2 (difference from the parental peptide). Turning to chain 1 EEDDYTKYAPLTCYFT, the enrichment is -3.29 log2 (difference from the parental peptide). On the same count and under the same terms, under chain 1 EEDDYTSYAPLTCYFT stands -2.1 log2 (difference from the parental peptide); under chain 1 EEDDNTAYAPLTCYFT, -6.68 log2 (difference from the parental peptide).

With chain 1 EEDDYTAYAPLTCYHT, the enrichment was -3.96 log2 (difference from the parental peptide). Take chain 1 EEDDYTAYAPLTCYET: the enrichment was -4.2 log2 (difference from the parental peptide). On the same count and under the same terms, with chain 1 EEDDYTAYAPLTCYQT the figure was -4.06 log2 (difference from the parental peptide); with chain 1 EEDDYTAYAPLTCYRT, -6.02 log2 (difference from the parental peptide); with chain 1 EEDDYTAYAPLTCYVT, -3.63 log2 (difference from the parental peptide).

For chain 1 EEDDYTAYAPLTCYTT, the enrichment is -3.97 log2 (difference from the parental peptide). Same read-out and setting: with chain 1 EEDDYTAYAPLTCYKT the figure was -4.98 log2 (difference from the parental peptide); with chain 1 EEDDYTAYAPLTCYPT, -6.33 log2 (difference from the parental peptide); with chain 1 ELDDYTAYAPLTCYFT, 0.769 log2 (difference from the parental peptide). On the same count and under the same terms, under chain 1 ERDDYTAYAPLTCYFT stands -2.64 log2 (difference from the parental peptide). Still for that read-out and setting: under chain 1 ESDDYTAYAPLTCYFT stands -0.165 log2 (difference from the parental peptide); under chain 1 ENDDYTAYAPLTCYFT, -1.08 log2 (difference from the parental peptide). As to chain 1 EVDDYTAYAPLTCYFT, the enrichment was 0.565 log2 (difference from the parental peptide).

For chain 1 EMDDYTAYAPLTCYFT, the enrichment is 0.392 log2 (difference from the parental peptide). With chain 1 EDDDYTAYAPLTCYFT, the enrichment is 2.11 log2 (difference from the parental peptide). Same read-out and setting: with chain 1 ETDDYTAYAPLTCYFT the figure was -1.16 log2 (difference from the parental peptide). On the same count and under the same terms, with chain 1 MEDDYTAYAPLTCYFT the figure was -5.78 log2 (difference from the parental peptide). The same measure, in the same setting: under chain 1 YEDDYTAYAPLTCYFT stands 1.7 log2 (difference from the parental peptide); under chain 1 GEDDYTAYAPLTCYFT, -6.21 log2 (difference from the parental peptide).
